The results in this text go back to patent publication US20090053761A1, “Polypeptide Mutagenesis Method” (University College Cardiff Consultants Ltd., priority 2005, published 2009).

The test system of this experiment is E. coli. The experiment is described as follows: TEM-1 β-lactamase activity in vivo: ampicillin MIC of BLA DEL library colonies. The format is cell-based, Escherichia coli DH5α. The conditions noted are these: minimum ampicillin concentration preventing growth of E. coli DH5α carrying the bla variant in pNOM; LB agar, 37° C., 16 hr. As for the experimental part:
The MuDel-inserted pNOM plasmids were isolated from each of the 22 colonies and equal amounts of each plasmid were pooled and subjected to restriction digestion with MlyI followed by agarose gel electrophoresis. The band corresponding to the linear pNOM minus MuDel was isolated and purified after agarose gel electrophoresis. Intramolecular ligation was performed using T4 DNA ligase and approximately 10 ng of linear pNOM (reaction conditions described above). The reaction was left at 25° C. for 10 min followed by 10 hr at 16° C. E. coli DH5α cells were transformed by electroporation with 1 μl of the ligation mixture. 500 μl of SOC medium was added to the cells immediately after electroporation and the cells were incubated at 37° C. for 1 hr. 50 μl and 500 μl of the recovering transformed cell cultures were plated on LB agar plates containing 15 μg/ml ampicillin. The plates were left overnight at 37° C. and 94 BLA^DEL library and two pNOM-containing colonies were selected and transferred to 96 deep-well culture plates containing 200 μl LB medium and 15 μg/ml ampicillin. The cells were grown for 16 hr at 37° C. with vigorous shaking. Sterile glycerol was added to 10% (v/v) for storage at −80° C.
The TEM-1 β-lactamase activity of each colony was measured in vivo by determining the minimum inhibitory concentration (MIC) of ampicillin that prevents E. coli growth. […]

B1: Wild-type (pNOM): wild-type TEM-1 β-lactamase encoded by the bla gene of pNOM, control (protein, UniProt P62593 24-286, looked up)
Beta-lactamase TEM: HPETLVKVKDAEDQLGARVGYIELDLNSGKILESFRPEERFPMMSTFKVLLCGAVLSRVDAGQEQLGRRIHYSQNDLVEYSPVTEKHLTDGMTVRELCSAAITMSDNTAANLLLTTIGGPKELTAFLHNMGDHVTRLDRWEPELNEAIPNDERDTTMPAAMATTLRKLLTGELLTLASRQQLIDWMEADKVAGPLLRSALPAGWFIADKSGAGERGSRGIIAALGPDGKPSRIVVIYTTGSQATMDERNRQIAEIGASLIKHW
In the case of B1, the “Amp MIC” value was > 10000 µg/mL.
